Data published in PMC9482650, “Quantitative fragmentomics allow affinity mapping of interactomes” (Nature Communications, 2022).

T1: DFNB31_1, Q9P202
T1 sequence (Q9P202 135-233, limits assumed, looked up): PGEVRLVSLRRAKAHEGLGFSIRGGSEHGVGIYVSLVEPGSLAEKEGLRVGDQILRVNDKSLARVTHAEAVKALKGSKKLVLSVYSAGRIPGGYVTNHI

T2: DLG3_1, Q92796
T2 sequence (Q92796 125-227, limits assumed, looked up): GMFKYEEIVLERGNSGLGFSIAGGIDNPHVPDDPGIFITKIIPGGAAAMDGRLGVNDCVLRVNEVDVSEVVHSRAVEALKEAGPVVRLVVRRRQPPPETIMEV

T3: DLG3_2, Q92796
T3 sequence (Q92796 221-321, limits assumed, looked up): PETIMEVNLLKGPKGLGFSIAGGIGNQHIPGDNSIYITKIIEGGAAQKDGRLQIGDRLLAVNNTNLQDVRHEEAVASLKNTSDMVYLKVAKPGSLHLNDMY

T4: GRIP1_2, Q9Y3R0
T4 sequence (Q9Y3R0 145-248, limits assumed, looked up): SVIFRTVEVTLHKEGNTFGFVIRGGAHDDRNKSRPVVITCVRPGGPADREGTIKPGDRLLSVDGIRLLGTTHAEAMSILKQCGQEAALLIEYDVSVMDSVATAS

T5: GRIP1_4, Q9Y3R0
T5 sequence (Q9Y3R0 467-571, limits assumed, looked up): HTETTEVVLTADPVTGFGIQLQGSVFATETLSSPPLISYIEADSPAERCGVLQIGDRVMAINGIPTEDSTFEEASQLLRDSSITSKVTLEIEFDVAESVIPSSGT

T6: HTRA3, P83110
T6 sequence (P83110 354-453, limits assumed, looked up): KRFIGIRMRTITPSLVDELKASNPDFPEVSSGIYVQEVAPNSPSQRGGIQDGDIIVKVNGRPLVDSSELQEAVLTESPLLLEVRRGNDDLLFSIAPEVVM

T7: LIN7B, Q9HAP6
T7 sequence (Q9HAP6 88-185, limits assumed, looked up): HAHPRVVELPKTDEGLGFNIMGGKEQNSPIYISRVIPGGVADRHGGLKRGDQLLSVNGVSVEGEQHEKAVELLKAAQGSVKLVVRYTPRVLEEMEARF

T8: MPDZ_10, O75970
T8 sequence (O75970 1624-1722, limits assumed, looked up): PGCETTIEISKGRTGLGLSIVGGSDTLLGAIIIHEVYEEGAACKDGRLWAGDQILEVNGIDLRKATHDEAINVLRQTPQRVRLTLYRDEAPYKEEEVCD

T9: PARD3B_1, Q8TEW8
T9 sequence (Q8TEW8 196-299, limits assumed, looked up): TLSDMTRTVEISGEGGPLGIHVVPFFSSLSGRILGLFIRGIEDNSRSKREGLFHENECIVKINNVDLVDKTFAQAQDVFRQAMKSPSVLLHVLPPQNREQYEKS

T10: PTPN13_1, Q12923
T10 sequence (Q12923 1088-1188, limits assumed, looked up): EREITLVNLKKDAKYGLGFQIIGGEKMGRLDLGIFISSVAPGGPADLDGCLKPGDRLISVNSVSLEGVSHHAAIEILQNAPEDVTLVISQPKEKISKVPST

T11: RHPN1, Q8TCX5
T11 sequence (Q8TCX5 508-602, limits assumed, looked up): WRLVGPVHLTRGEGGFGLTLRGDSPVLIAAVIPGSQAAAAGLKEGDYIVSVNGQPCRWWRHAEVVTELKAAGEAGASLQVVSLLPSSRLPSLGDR

T12: SYNJ2BP, P57105
T12 sequence (P57105 8-110, limits assumed, looked up): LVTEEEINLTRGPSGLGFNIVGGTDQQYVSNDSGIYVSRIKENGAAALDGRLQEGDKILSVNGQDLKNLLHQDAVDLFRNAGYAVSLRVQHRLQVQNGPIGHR

B1: EPHB3, P54753 (peptide)
chain: QMNQTLPVQV

These binders were tested against T1, DFNB31_1, Q9P202 (assay: holdup assay). Conditions: plain residues with an end cap or a label only (N-terminal biotin on a linker: ado-ado).
Design: key: below the threshold = too weak to quantify, mostly under pKd 3.1 to 4

pKd | Binder
3.51 | B1

The binders below were run against DLG1_3, Q12959 (assay: holdup assay). Conditions: plain residues with an end cap or a label only (N-terminal biotin on a linker: ado-ado).
Design: key: below the threshold = too weak to quantify, mostly under pKd 3.1 to 4

DLG1_3, Q12959, sequence (Q12959 457-571): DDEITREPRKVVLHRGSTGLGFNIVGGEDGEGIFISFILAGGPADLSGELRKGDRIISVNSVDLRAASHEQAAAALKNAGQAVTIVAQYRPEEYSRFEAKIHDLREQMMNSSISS

pKd | Binder
3.76 | B1

The binders below were run against T2, DLG3_1, Q92796 (assay: holdup assay). Conditions: plain residues with an end cap or a label only (N-terminal biotin on a linker: ado-ado).
Design: key: below the threshold = too weak to quantify, mostly under pKd 3.1 to 4

pKd | Binder
below the threshold | B1

The binders below were run against T3, DLG3_2, Q92796 (assay: holdup assay). Conditions: plain residues with an end cap or a label only (N-terminal biotin on a linker: ado-ado).
Design: key: below the threshold = too weak to quantify, mostly under pKd 3.1 to 4

pKd | Binder
below the threshold | B1

Each binder was assayed against DLG4_1, P78352 (assay: holdup assay). Conditions: plain residues with an end cap or a label only (N-terminal biotin on a linker: ado-ado).
Design: key: below the threshold = too weak to quantify, mostly under pKd 3.1 to 4

DLG4_1, P78352, sequence (P78352 62-152): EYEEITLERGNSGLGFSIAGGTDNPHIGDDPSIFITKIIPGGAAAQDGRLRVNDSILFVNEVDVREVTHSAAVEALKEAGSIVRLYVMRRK

pKd | Binder
below the threshold | B1

Each binder was assayed against GORASP2, Q9H8Y8 (assay: holdup assay). Conditions: plain residues with an end cap or a label only (N-terminal biotin on a linker: ado-ado).
Design: key: below the threshold = too weak to quantify, mostly under pKd 3.1 to 4

pKd | Binder
3.81 | B1

What follows are binders tested against T4, GRIP1_2, Q9Y3R0 (assay: holdup assay). Conditions: plain residues with an end cap or a label only (N-terminal biotin on a linker: ado-ado).
Design: key: below the threshold = too weak to quantify, mostly under pKd 3.1 to 4

pKd | Binder
3.58 | B1

What follows are binders tested against T5, GRIP1_4, Q9Y3R0 (assay: holdup assay). Conditions: plain residues with an end cap or a label only (N-terminal biotin on a linker: ado-ado).
Design: key: below the threshold = too weak to quantify, mostly under pKd 3.1 to 4

pKd | Binder
below the threshold | B1

What follows are binders tested against HTRA1, Q92743 (assay: holdup assay). Conditions: plain residues with an end cap or a label only (N-terminal biotin on a linker: ado-ado).
Design: key: below the threshold = too weak to quantify, mostly under pKd 3.1 to 4

HTRA1, Q92743, sequence (Q92743 360-477): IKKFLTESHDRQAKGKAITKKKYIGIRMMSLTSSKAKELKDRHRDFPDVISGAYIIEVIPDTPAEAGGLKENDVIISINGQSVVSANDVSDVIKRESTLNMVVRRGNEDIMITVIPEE

pKd | Binder
4.11 | B1

These binders were tested against T6, HTRA3, P83110 (assay: holdup assay). Conditions: plain residues with an end cap or a label only (N-terminal biotin on a linker: ado-ado).
Design: key: below the threshold = too weak to quantify, mostly under pKd 3.1 to 4

pKd | Binder
below the threshold | B1

These binders were tested against IL16_1, Q14005 (assay: holdup assay). Conditions: plain residues with an end cap or a label only (N-terminal biotin on a linker: ado-ado).
Design: key: below the threshold = too weak to quantify, mostly under pKd 3.1 to 4

IL16_1, Q14005, sequence (Q14005 210-306): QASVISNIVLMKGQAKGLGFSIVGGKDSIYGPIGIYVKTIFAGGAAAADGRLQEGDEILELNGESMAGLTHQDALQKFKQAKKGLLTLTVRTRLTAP

pKd | Binder
below the threshold | B1

These binders were tested against Inadl_10, Q8NI35 (assay: holdup assay). Conditions: plain residues with an end cap or a label only (N-terminal biotin on a linker: ado-ado).
Design: key: below the threshold = too weak to quantify, mostly under pKd 3.1 to 4

Inadl_10, Q8NI35, sequence (Q8NI35 1673-1763): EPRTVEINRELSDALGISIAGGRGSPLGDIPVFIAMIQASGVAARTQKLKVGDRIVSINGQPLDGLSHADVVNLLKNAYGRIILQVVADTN

pKd | Binder
below the threshold | B1

What follows are binders tested against Inadl_5, Q8NI35 (assay: holdup assay). Conditions: plain residues with an end cap or a label only (N-terminal biotin on a linker: ado-ado).
Design: key: below the threshold = too weak to quantify, mostly under pKd 3.1 to 4

Inadl_5, Q8NI35, sequence (Q8NI35 673-780): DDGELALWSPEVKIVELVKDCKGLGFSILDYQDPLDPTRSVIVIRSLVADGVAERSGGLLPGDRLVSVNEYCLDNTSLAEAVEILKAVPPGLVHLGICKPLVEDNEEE

pKd | Binder
4.1 | B1

These binders were tested against Inadl_9, Q8NI35 (assay: holdup assay). Conditions: plain residues with an end cap or a label only (N-terminal biotin on a linker: ado-ado).
Design: key: below the threshold = too weak to quantify, mostly under pKd 3.1 to 4

Inadl_9, Q8NI35, sequence (Q8NI35 1530-1615): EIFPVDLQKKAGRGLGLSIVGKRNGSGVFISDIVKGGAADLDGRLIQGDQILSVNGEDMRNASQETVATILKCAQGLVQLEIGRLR

pKd | Binder
4.34 | B1

These binders were tested against LAP2, Q96RT1 (assay: holdup assay). Conditions: plain residues with an end cap or a label only (N-terminal biotin on a linker: ado-ado).
Design: key: below the threshold = too weak to quantify, mostly under pKd 3.1 to 4

LAP2, Q96RT1, sequence (Q96RT1 other isoform, or with tags, fused parts or gaps): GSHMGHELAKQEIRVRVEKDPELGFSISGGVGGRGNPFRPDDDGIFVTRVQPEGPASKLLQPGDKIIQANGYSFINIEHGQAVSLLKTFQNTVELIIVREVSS

pKd | Binder
below the threshold | B1

What follows are binders tested against T7, LIN7B, Q9HAP6 (assay: holdup assay). Conditions: plain residues with an end cap or a label only (N-terminal biotin on a linker: ado-ado).
Design: key: below the threshold = too weak to quantify, mostly under pKd 3.1 to 4

pKd | Binder
below the threshold | B1

Each binder was assayed against T8, MPDZ_10, O75970 (assay: holdup assay). Conditions: plain residues with an end cap or a label only (N-terminal biotin on a linker: ado-ado).
Design: key: below the threshold = too weak to quantify, mostly under pKd 3.1 to 4

pKd | Binder
3.49 | B1

These binders were tested against NHERF4_4, Q86UT5 (assay: holdup assay). Conditions: plain residues with an end cap or a label only (N-terminal biotin on a linker: ado-ado).
Design: key: below the threshold = too weak to quantify, mostly under pKd 3.1 to 4

NHERF4_4, Q86UT5, sequence (Q86UT5 464-550): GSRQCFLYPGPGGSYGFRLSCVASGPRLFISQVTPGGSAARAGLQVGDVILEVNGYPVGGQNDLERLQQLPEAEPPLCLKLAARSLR

pKd | Binder
3.92 | B1

Each binder was assayed against NOS1, P29475 (assay: holdup assay). Conditions: plain residues with an end cap or a label only (N-terminal biotin on a linker: ado-ado).
Design: key: below the threshold = too weak to quantify, mostly under pKd 3.1 to 4

NOS1, P29475, sequence (P29475 9-101): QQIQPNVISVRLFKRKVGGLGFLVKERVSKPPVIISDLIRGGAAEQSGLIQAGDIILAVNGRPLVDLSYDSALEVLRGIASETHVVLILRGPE

pKd | Binder
4.18 | B1

Each binder was assayed against T9, PARD3B_1, Q8TEW8 (assay: holdup assay). Conditions: plain residues with an end cap or a label only (N-terminal biotin on a linker: ado-ado).
Design: key: below the threshold = too weak to quantify, mostly under pKd 3.1 to 4

pKd | Binder
3.78 | B1

What follows are binders tested against T10, PTPN13_1, Q12923 (assay: holdup assay). Conditions: plain residues with an end cap or a label only (N-terminal biotin on a linker: ado-ado).
Design: key: below the threshold = too weak to quantify, mostly under pKd 3.1 to 4

pKd | Binder
below the threshold | B1

These binders were tested against T11, RHPN1, Q8TCX5 (assay: holdup assay). Conditions: plain residues with an end cap or a label only (N-terminal biotin on a linker: ado-ado).
Design: key: below the threshold = too weak to quantify, mostly under pKd 3.1 to 4

pKd | Binder
below the threshold | B1

What follows are binders tested against T12, SYNJ2BP, P57105 (assay: holdup assay). Conditions: plain residues with an end cap or a label only (N-terminal biotin on a linker: ado-ado).
Design: key: below the threshold = too weak to quantify, mostly under pKd 3.1 to 4

pKd | Binder
below the threshold | B1

What follows are binders tested against TJP1_3, Q07157 (assay: holdup assay). Conditions: plain residues with an end cap or a label only (N-terminal biotin on a linker: ado-ado).
Design: key: below the threshold = too weak to quantify, mostly under pKd 3.1 to 4

TJP1_3, Q07157, sequence (Q07157 416-512): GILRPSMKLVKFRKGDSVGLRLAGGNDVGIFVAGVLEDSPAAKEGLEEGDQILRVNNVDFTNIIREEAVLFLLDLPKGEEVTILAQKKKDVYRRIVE

pKd | Binder
below the threshold | B1

What follows are binders tested against TJP2_1, Q9UDY2 (assay: holdup assay). Conditions: plain residues with an end cap or a label only (N-terminal biotin on a linker: ado-ado).
Design: key: below the threshold = too weak to quantify, mostly under pKd 3.1 to 4

TJP2_1, Q9UDY2, sequence (Q9UDY2 24-128): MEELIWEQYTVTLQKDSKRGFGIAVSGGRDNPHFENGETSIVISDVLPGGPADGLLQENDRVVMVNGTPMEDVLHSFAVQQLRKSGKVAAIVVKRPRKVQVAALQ

pKd | Binder
below the threshold | B1
